Data reported in the supplement of paper PMC9170038.

Tests used:
MS2 coat protein [1] = assay: apparent KD of MS2 coat protein, switch ON state; designed switch direction (-1 OFF switch, 1 ON switch): -1; higher = weaker reporter binding; conditions: FMN input: 0 or 200 uM; Eterna round: R93 (includes R88 designs)
Outline: (§1)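 Apparent KD stands for the median, per design, of fits to normalised cluster binding curves. The curves came from titrating on-chip-transcribed RNA switches on Illumina sequencing clusters with SNAP-549-labelled MS2 coat protein, twofold from 0.7 or 1.5 nM to 3 µM. Buffer was 100 mM Tris-HCl pH 7.5, 80 mM KCl, 4 mM MgCl2, without or with constant ligand.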

MS2 coat protein [2] = assay: apparent KD of MS2 coat protein, switch OFF state (with FMN for OFF switches, without FMN for ON switches); designed switch direction (-1 OFF switch, 1 ON switch): -1; higher = weaker reporter binding; conditions: FMN input: 0 or 200 uM; Eterna round: R93 (includes R88 designs)
Outline: as §1

| Sequence | apparent KD of MS2 coat protein (MS2 coat protein [1]) | apparent KD of MS2 coat protein (MS2 coat protein [2]) |
| --- | --- | --- |
| AAAAGAAAAGGAUAUAAAAAGAAAAGUCAGGAUAUAGGAAACUAGAAGGGACAUGAGGAUCACCCAUGUAAAAG [Meechl Ex4 R2 m2] | 0.0359 µM | 0.0719 µM |
| AAAAGACAUGAGGAUCACCCAUGUCAGGAUAUGACUUGAAAAAAAAAAAAAAAACAUGUCAGAAGGGACAUGAA [Design 45: Sub-opt D] | 0.0206 µM | 0.0196 µM |
| AAAAGACAUGAGGAUCACCCAUGUGAGGAUAUGACGUAAAUAAAGAAAGAAGAAAUCGUCAGAAGGCACACCUA [55%, Disencluded 2, 1] | 0.0295 µM | 0.0634 µM |
| AAAAGGAAAGGAUAUGCAGACUGGGUCACCCAGAUGUAUGAACAUGAGGAUCACCCAUGUAGAAGGUUCAAAAG [Ribiquon] | 0.0366 µM | 0.0265 µM |
| AAAAGUACAGGAUAUACAUGAGGAUCACCCAUGUGAAAAUUAAGUGGCGUACAACAAAGUAGAAGGGUACUGGA [Ruby 52] | 0.0207 µM | 0.0446 µM |
| AAAAGUUGAGGAUAUACAAAAUGAUUGCGAAAUCAAUUAAAACAUGAGGAUCACCCAUGUAGAAGGCGAUAAAA [Banishment 4 - Jieux - Exclusion 2] | 0.027 µM | 0.0216 µM |
| AAAAUACAUGAGGAUCACCCAUGUGAGGAUAUGCUAUGGAAAUAAAAAAUAAAACAUAGCAGAAGGUACAAAAA [Mat - Exclusion 1 - Eli mod - D42] | 0.0209 µM | 0.0337 µM |
| AAAAUGUCAGGAUAUCUGGAUAGGAAAAAGAAAACCUAUCCAGAGAAGGGACAUGAGGAUCACCCAUGUAAAAA [JL cataway mod 3] | 0.0929 µM | 0.171 µM |
| AAAAUGUCAGGAUAUGUAGCAUGAUACGAAAGUAUCAUGCUACAGAAGGGACAUGAGGAUCACCCAUGUGAUCA [Ex4: 939] | 0.0597 µM | 0.045 µM |
| AAACCACAUGAGGAUCACCCAUGUUAGGAUAUGCUAUGGAAAAUAAAAAUAAAACAUAGCAGAAGGGACAAAAA [Denovo 7] | 0.0193 µM | 0.0187 µM |
| AAAGAGUGAGGAUAUUCGGAUAGGAAAACGAAAACCUAUCCGAAGAAGGCACAUGAGGAUCACCCAUGUAAAAA [67% Ecls-II - Early G segment 2] | 0.0373 µM | 0.0395 µM |
| AAAGAUACAGGAUAUACAUGAGGAUCACCCAUGUGGAAUCAAAAAUGGGAAAAAGAAAGUAGAAGGGUAUAAAA [Ex 3 May 38] | 0.0306 µM | 0.0873 µM |
| AAAGAUGCAGGAUAUACAUGAGGAUCACCCAUGUUAGACCAGAAAUGGGAAAAAGAAAGUAGAAGGGCAUAAAA [Ex 3 May 33] | 0.0182 µM | 0.119 µM |
| AAAGGACGAGGAUAUACAUGAGGAUCACCCAUGUAAAAAACAUAAUAAAAGAACUUGUGUAGAAGGCGUCCAAA [Meechl Ex3 2 R2 v6] | 0.093 µM | 0.335 µM |
| AAAGGACGAGGAUAUACAUGAGGAUCACCCAUGUAAAAAGCGUAAUAAAAGAACUUAUGUAGAAGGCGUCCAAA [Meechl Ex3 2 R2 v1] | 0.045 µM | 0.0668 µM |
| AAAGGUGCAGGAUAUGCGUGGAAAAAGUGUAUUCAAAAAAAACAUGAGGAUCACCCAUGUAGAAGGGUACCAAA [MS2 Riboswitches On Chip Exclusion 2 wbt2] | 0.0557 µM | 0.165 µM |
| AAAUAACAUGAGGAUCACCCAUGUUAGGAUAUCUAAAUGGUGUAAACACCAGAAGAUGAGAGAAGGGACGUGGA [Enlalees] | 0.0179 µM | 0.0251 µM |

| Sequence | apparent KD of MS2 coat protein (MS2 coat protein [1]) | apparent KD of MS2 coat protein (MS2 coat protein [2]) |
| --- | --- | --- |
| AAAUAGCAAGGAUAUACAUGAGGAUCACCCAUGUGAAAAAGAUAUGGAAUAGAAUAGAGUAGAAGGUGCAAAUA [Ex 3 Tesla 8] | 0.0404 µM | 0.0541 µM |
| AAAUAGUUAGGAUAUACAUGAGGAUCACCCAUGUGCACUUAUGGAGAAUAGUGUAAUGGUAGAAGGGACUAAAA [EX2 Malc#23] | 0.0821 µM | 0.0946 µM |
| AAAUAGUUAGGAUAUACAUGAGGAUCACCCAUGUGGACUUAUGGAGAAUAAUUUAGUGGUAGAAGGGACUAAAA [EX2 Malc#27] | 0.0464 µM | 0.0446 µM |
| AAAUGCUGAGGAUAUACAUGAGGAUCACCCAUGUAAAAUAAAUAAUGAGUGUAAACGUGUAGAAGGCAGCAUAA [Exclusion 3.14c (FMN+ favored )] | 0.0411 µM | 0.0195 µM |
| AAAUUGUCAGGAUAUGUACGAACAACAAAACAAAUAACGGUACAGAAGGGACAUGAGGAUCACCCAUGUAUAAA [May 72] | 0.0658 µM | 0.0732 µM |
| AACAAGACAGGAUAUACAUGAGGAUCACCCAUGUGAGAAUUAAGUGGCGUACCACAAGGUAGAAGGGUCAUGGA [Ruby 3] | 0.0342 µM | 0.0576 µM |
| AACAGACAUGAGGAUCACCCAUGUAAGGAUAUCCCAAACGAUAAAACAAGAAUGACAAGGAGAAGGUGCAGCAA [JR_Exc001_Sub006] | 0.0628 µM | 0.0508 µM |
| AACAGGUGAGGAUAUCGAACAACAACAACAACAACAACAAACGAGAAGGCACAUGAGGAUCACCCAUGUAAGAA [Exclusion 4C] | 0.0196 µM | 0.0166 µM |
| AACAGUACAGGAUAUACAUGAGGAUCACCCAUGUAAAGGGAAAGUGGCGUACCACAAAGUAGAAGGGUACUGGA [Moding Maslow revisited (73) 5] | 0.0401 µM | 0.175 µM |
| AACAGUACAGGAUAUACAUGAGGAUCACCCAUGUAGAGAGAAUAAAACAAAAAUAAAUGUAGAAGGGUACUGAA [Mat - Exclusion 3 - Eli mod - D68] | 0.0245 µM | 0.0255 µM |
| AACAGUACAGGAUAUACAUGAGGAUCACCCAUGUGAAAAUUAAGUGGCGAACCACAAUGUAGAAGGGUACUGGA [Mat - Exclusion 3 - Eli mod - D47] | 0.0819 µM | 0.0259 µM |
| AACAGUACAGGAUAUACAUGAGGAUCACCCAUGUGAAAAUUAAGUGGCGUACCACAGUGUAGAAGGGUACUGGA [Moding Maslow Revisited (73) 25] | 0.0879 µM | 0.0627 µM |
| AACAGUACAGGAUAUACAUGAGGAUCACCCAUGUGAGAAACCAGUGGCGUACCACAAAGUAGAAGGGUACUGGA [Moding Maslow Revisited (73) 28] | 0.0424 µM | 0.185 µM |
| AACAGUACAGGAUAUACAUGAGGAUCACCCAUGUGGGUAAAAAGAUCGAGAGAUCCAUGUAGAAGGGUACUGGA [JL In the Red 05] | 0.0367 µM | 0.0379 µM |
| AACAUGUUAGGAUAUUCAAGAAAAGAAAAGAAAGAAAAGAAGAAGAAGGAACAUGAGGAUCACCCAUGUAAGAA [EteRNA is fun!] | 0.0333 µM | 0.0271 µM |
| AACCCGCUAGGAUAUACAGCAGGGAUUCGAAAACCCACGAAACAUGAGGAUCACCCAUGUAGAAGGAGUAGGGA [Bereatenat] | 0.0227 µM | 0.0211 µM |
| AACGCGUCAGGAUAUAGCAUAAAUUACGUAGUACGACCAUACUAGAAGGGACAUGAGGAUCACCCAUGUGGGUA [JR_Exc004_Sub207] | 0.167 µM | 0.0904 µM |
